Values belong to the binder of their own block, whether it stands above or below them.
Tests used:
[1] = target: T1, human glandular kallikrein 2 (hK2) (human, UniProt P20151 25-261); assay: cell-based or functional assay
[2] = target: T1, human glandular kallikrein 2 (hK2); assay: method not stated (told in the Materials section of Example 10)
[3] = target: T2, free prostate-specific antigen (fPSA) (human, UniProt P07288 25-261); assay: Time-resolved Eu fluorescence immunoassay: coat goat anti-human polyclonal, 5A10-Fab 15 ng/well, Eu-PSA titrated from about 0.15 to 20 ng/well [upper and lower panels]
T2 construct: In the IRMA, fPSA was spiked into female plasma and captured by mAb H117; also called hk3; human kallikrein 3
T2 sequence (P07288 25-261 limits assumed): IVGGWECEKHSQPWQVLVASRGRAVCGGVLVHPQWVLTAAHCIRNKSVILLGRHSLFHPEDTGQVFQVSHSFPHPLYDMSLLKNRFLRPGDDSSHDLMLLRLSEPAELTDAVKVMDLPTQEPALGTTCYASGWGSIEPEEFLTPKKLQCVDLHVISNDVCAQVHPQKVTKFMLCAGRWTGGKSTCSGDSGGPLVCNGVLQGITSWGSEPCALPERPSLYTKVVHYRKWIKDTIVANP

T1 sequence (P20151 25-261 limits assumed): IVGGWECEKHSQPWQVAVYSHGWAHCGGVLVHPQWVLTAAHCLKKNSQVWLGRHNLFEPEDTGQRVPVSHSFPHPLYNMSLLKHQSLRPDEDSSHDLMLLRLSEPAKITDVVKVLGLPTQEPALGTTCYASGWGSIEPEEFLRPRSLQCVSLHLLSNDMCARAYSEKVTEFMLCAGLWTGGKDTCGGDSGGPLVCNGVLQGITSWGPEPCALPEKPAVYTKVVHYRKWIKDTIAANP

- tumor uptake in hK2-expressing xenografts (LnCAP) against hK2-negative xenografts (DU145) at 48 hpi [1]: > 3 fold
B1: 111In-CHX-A''-DTPA-11B6 (antibody, V domains shown)
VH: DVQLQESGPGLVKPSQSLSLTCTVTGNSITSDYAWNWIRQFPGNRLEWMGYISYSGSTTYSPSLKSRFSITRDTSKNQFFLQLNSVTPEDTATYFCATGYYYGSGFWGQGTLVTVSS
VL: DIVLTQSPASLAVSLGQRATISCRASESVEYFGTSLMHWYRQKPGQPPKLLIYAASNVESGVPARFSGSGSGTDFSLNIQPVEEDDFSMYFCQQTRKVPYTFGGGTKLEIK
modifications: CHX-A''-DTPA chelator conjugated to the antibody and labelled with 111In; sites not stated

- Kd [2]: ~1.2 nM
B2: mAb 11B6 (mouse monoclonal anti-hK2 antibody) (antibody, V domains shown)
VH: DVQLQESGPGLVKPSQSLSLTCTVTGNSITSDYAWNWIRQFPGNRLEWMGYISYSGSTTYSPSLKSRFSITRDTSKNQFFLQLNSVTPEDTATYFCATGYYYGSGFWGQGTLVTVSS
VL: DIVLTQSPASLAVSLGQRATISCRASESVEYFGTSLMHWYRQKPGQPPKLLIYAASNVESGVPARFSGSGSGTDFSLNIQPVEEDDFSMYFCQQTRKVPYTFGGGTKLEIK
notes: Whole mouse monoclonal antibody obtained from the University of Turku; also called m11B6; mouse mAb 11B6

- binding result [3]: binds
B3: 5A10-Fab (Fab, V domains shown)
VH: EVQLVESGPGILQPSQTLSLTCSFSGFSLSTTGMGVSWIRQPSGKGLEWLAHLYWDEDKRYNPSLKSRLTISEDSSRNQVFLKITSVGPADSATYYCARKGYYGYFDYWGQGTALTVSS
VL: DIVMTQSQKFMSTSVGDRVSVTCKASQNVNTDVAWYQQKPGQSPKALIFSTSYRSSGVPDRFTGSGSGTDFTLTITNVQSEDLAEYFCQQYSNYPLTFGAGTKVDLN
notes: also called exemplary 5A10-Fab; Fab fragment of anti-PSA antibody 5A10

Reference: patent US20200138986A1 (FREDAX, published 2020)
